Data set [1] has as its target T1, LyxD (H16_B0217), L-lyxonate dehydratase (Cupriavidus necator, UniProt Q0K4Q6).
T1 sequence (Q0K4Q6 1-391): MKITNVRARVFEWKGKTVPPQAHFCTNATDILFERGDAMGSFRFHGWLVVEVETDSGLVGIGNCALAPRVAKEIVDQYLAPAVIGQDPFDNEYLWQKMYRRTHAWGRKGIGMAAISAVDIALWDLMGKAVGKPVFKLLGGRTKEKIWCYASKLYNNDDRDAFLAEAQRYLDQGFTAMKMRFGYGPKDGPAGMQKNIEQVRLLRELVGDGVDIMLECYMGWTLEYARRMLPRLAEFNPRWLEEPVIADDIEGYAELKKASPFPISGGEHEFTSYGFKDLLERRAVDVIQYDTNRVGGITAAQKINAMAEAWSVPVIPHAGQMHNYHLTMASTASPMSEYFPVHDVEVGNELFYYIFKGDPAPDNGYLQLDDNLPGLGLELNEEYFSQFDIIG
The data set can be described thus: in vitro activity assay. The class given is biochemical.

In data set [2] the target is T2, KgsD (H16_B0212), Kgs dehydrogenase (Cupriavidus necator, UniProt Q0K4R1).
T2 sequence (Q0K4R1 1-527): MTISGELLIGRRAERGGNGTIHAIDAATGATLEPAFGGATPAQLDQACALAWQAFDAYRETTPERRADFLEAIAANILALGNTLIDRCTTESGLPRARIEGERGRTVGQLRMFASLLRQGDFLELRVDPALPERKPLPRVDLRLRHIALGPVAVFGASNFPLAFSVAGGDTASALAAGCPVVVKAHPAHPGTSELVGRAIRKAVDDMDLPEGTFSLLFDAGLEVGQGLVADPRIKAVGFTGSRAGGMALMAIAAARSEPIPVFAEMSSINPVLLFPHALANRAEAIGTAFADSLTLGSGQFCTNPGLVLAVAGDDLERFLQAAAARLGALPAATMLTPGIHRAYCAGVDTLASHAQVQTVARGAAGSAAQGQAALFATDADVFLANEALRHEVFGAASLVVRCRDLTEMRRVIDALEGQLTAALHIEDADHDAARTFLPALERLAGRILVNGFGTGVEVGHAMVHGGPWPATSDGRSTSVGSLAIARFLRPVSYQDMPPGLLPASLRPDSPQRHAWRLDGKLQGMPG
Put plainly: in vitro activity assay. It is filed as biochemical.

For data set [3], the target named is T3, ClxD (H16_B0216), Clx decarboxylase (Cupriavidus necator, UniProt Q0K4Q7).
T3 sequence (Q0K4Q7 1-338): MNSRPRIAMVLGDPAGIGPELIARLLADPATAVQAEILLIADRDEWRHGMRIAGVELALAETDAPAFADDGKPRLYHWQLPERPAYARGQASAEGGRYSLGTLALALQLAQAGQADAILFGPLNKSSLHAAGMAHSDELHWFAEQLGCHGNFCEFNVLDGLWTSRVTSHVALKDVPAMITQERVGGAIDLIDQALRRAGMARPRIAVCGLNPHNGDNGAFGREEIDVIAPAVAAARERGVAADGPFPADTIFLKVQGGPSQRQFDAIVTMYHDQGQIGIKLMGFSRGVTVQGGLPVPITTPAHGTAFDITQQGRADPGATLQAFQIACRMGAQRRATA
Put plainly: in vitro decarboxylation assay. It is filed as biochemical. The settings on record: with 2-carboxy-L-lyxonate; catalytic NAD+, regenerated in the reaction.

A further data set addresses T4, KdlD, Kdl dehydratase (Cupriavidus necator, UniProt Q0K4R0).
T4 sequence (Q0K4R0 1-310): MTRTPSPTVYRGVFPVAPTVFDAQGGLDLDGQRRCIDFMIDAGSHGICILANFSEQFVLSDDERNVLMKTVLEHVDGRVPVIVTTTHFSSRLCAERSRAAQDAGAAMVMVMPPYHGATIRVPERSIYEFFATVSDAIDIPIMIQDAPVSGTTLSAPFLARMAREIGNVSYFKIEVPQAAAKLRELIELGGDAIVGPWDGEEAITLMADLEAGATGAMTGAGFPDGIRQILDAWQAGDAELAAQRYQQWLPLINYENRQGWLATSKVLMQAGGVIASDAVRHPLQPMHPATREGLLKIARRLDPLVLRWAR
The data set can be described thus: in vitro activity assay. The class given is biochemical.

Substrate in data set [4]: O=C1O[C@H]([C@@H](O)CO)C(=O)C1=O
Put plainly: in vitro enzyme kinetics. The class given is biochemical, Cupriavidus necator.

Substrate in data set [5]: O=C(O)C(O)(C(=O)O)[C@H](O)[C@@H](O)CO
Put plainly: in vitro enzyme kinetics. The class given is biochemical, Cupriavidus necator. The conditions noted are these: NAD+ as catalytic cofactor.

Substrate in data set [6]: O=C(O)C(=O)C(=O)[C@H](O)[C@@H](O)CO
Put plainly: in vitro enzyme kinetics. It is filed as biochemical, Cupriavidus necator.

On to `O=C(O)[C@H](O)[C@H](O)[C@@H](O)CO` [L-lyxonate], for which, in data set [1], the “in vitro activity assay (dehydration)” value is “heterologously expressed and display the predicted in vitro activities”.

Take `O=CCCC(=O)C(=O)O` [α-ketoglutarate semialdehyde]: the “in vitro activity assay (oxidation)” value in data set [2] is “heterologously expressed and display the predicted in vitro activities”.

Consider `NC(=O)c1ccc[n+]([C@@H]2O[C@H](COP(=O)(O)OP(=O)(O)OC[C@H]3O[C@@H](n4cnc5c(N)ncnc54)[C@H](O)[C@@H]3O)[C@@H](O)[C@H]2O)c1` [NAD^+], for which the “in vitro decarboxylation assay; stopped-flow absorbance at 340 nm” value in data set [3] is “generates L-lyxonate (Figure 1C), even with sub-stoichiometric amounts of NAD^+”.

As for `O=C(O)C(=O)C[C@@H](O)CO` [2-keto-3-deoxy-L-lyxonate], the “in vitro activity assay (dehydration)” value on KdlD, Kdl dehydratase was “heterologously expressed and display the predicted in vitro activities”.

B1: DhaL (H16_A3012), DHA lactonase (Cupriavidus necator H16) (protein)
chain: MDTVRIFDERARELPLAGERLEQLACRATWSEGPVWLPDEDAVLWSDIPNDRILRWSAADGMSVWRTGAGFTNGHALEADGSLLHCSHGKRAIVRTHRSGARLGEDELVVSHYQGRRLNSPNDIVVKRDGTLWFTDPPYGILSDREGHRADPELRHNYVFRYDPAVGALEVASDLIEEPNGLAFSPDEDVLYVSDTSAALRDDGHHHIVAFDVVAGRVLANPRVFAVIAPGLPDGFRVDRRGWLFTSSASGVQVFHPDGTRLAHIPVPEKVGNLVFGGAEGDALFIAASTSLYRLRLGQRLT
Regarding B1, in “in vitro enzyme kinetics [4]”, the Km was found to be 490 ± 70 µM and the kcat turned out to be 8.0 ± 0.6 s−^1.

B2: ClxD (H16_B0216), Clx decarboxylase (Cupriavidus necator H16) (protein)
chain: T3 sequence (Q0K4Q7 1-338)
With B2, in the data set “in vitro enzyme kinetics [5]”, the Km was determined as 800 ± 400 µM and the kcat stood at 0.33 ± 0.08 s−^1.

B3: DkgM (H16_B1217), DKG mutase (Cupriavidus necator H16) (protein)
chain: MESQWTAVLVEKFGHSFSAYELDGGERRFSVQLPDYPHEFVVDRERLCGYVGHYGVQTFAHAGDGGAAVIAVDLMRGAVRARLDCSPYHRIHGLQIDRQGRVYALSERDNMLVVFEAPLEHPVPDRAVPAGGVKSHLFVLSADGERAYVTNLLSHTVTLVHPYDATRAPRAAYAGRRPEGCCLSRDEAALYVASRDDHSLTRLDARTMEAVRTVPTGEDPTRIYWSPDDRLFVLNYGERSIRVFDPDTLAETGRVDTGARPIALAFHPADPSRAYIALNDHTVGQLDLPGLALRHAFTTGKEPDGLAILALPTR
As for B3, in “in vitro enzyme kinetics [6]”, the Km is 81 ± 7 µM and the kcat amounted to 0.6 ± 0.1 s−^1.

What is called Km is the substrate concentration at which the rate is half of its maximum.
